According to EP1244779B1:

Legend:
Assay in all cases: cell-based or functional assay
[1] = molecular target: Savinase (subtilisin 309 from B. lentus) (B. lentus) (UniProt P29600)
[2] = molecular target: subtilisin 309 variant A98AI+A98G+S99H+G100S+S101A (B. lentus) (UniProt P29600)
[3] = molecular target: subtilisin 309 variant A98AT + Y167A + R170S + A194P (B. lentus) (UniProt P29600)
[4] = molecular target: subtilisin 309 variant S99SD (B. lentus) (UniProt P29600)
[5] = molecular target: subtilisin 309 variant S99SD + M222S (B. lentus) (UniProt P29600)
[6] = molecular target: subtilisin 309 variant S99SD + N76D + A194P + A230V (B. lentus) (UniProt P29600)
[7] = molecular target: subtilisin 309 variant S99SD + S99A (B. lentus) (UniProt P29600)
[8] = molecular target: subtilisin 309 variant S99SD + S99A + A133E (B. lentus) (UniProt P29600)
[9] = molecular target: subtilisin 309 variant S99SD + S99A + L217F + A228V + A230V (B. lentus) (UniProt P29600)
[10] = molecular target: subtilisin 309 variant S99SD + S99A + L217LP (B. lentus) (UniProt P29600)
[11] = molecular target: subtilisin 309 variant S99SD + S99A + L42LN (B. lentus) (UniProt P29600)
[12] = molecular target: subtilisin 309 variant S99SD + S99A + P129PD (B. lentus) (UniProt P29600)
[13] = molecular target: subtilisin 309 variant S99SD + S99A + P129PR (B. lentus) (UniProt P29600)
[14] = molecular target: subtilisin 309 variant S99SD + S99A + P131T (B. lentus) (UniProt P29600)
[15] = molecular target: subtilisin 309 variant S99SD + S99A + S216SDP (B. lentus) (UniProt P29600)
[16] = molecular target: subtilisin 309 variant S99SD + S99A + S216SP (B. lentus) (UniProt P29600)
[17] = molecular target: subtilisin 309 variant S99SD + S99A + T143K (B. lentus) (UniProt P29600)
[18] = molecular target: subtilisin 309 variant S99SE (B. lentus) (UniProt P29600)
[19] = molecular target: subtilisin 309 variant S99SN (B. lentus) (UniProt P29600)
[20] = molecular target: subtilisin 309 variant S99SQ + S99T (B. lentus) (UniProt P29600)
[21] = molecular target: subtilisin 309 variant S99SR + S99T (B. lentus) (UniProt P29600)

**Q.** How did the Residual Activity (%) [1] turn out when “trypsin inhibitor type IV-0 (Ovo-inhibitor) (from UniProt P10184 69-517)” was run?
**A.** Its Residual Activity (%) is less than 5%.

**Q.** What about the Residual Activity (%) [2] of the same substance?
**A.** Its Residual Activity (%) is 22%.

**Q.** What about the Residual Activity (%) [3] of the same substance?
**A.** Its Residual Activity (%) is 88%.

**Q.** And the Residual Activity (%) [4]?
**A.** Its Residual Activity (%) is 25%.

**Q.** And the Residual Activity (%) [5]?
**A.** Its Residual Activity (%) is 25%.

**Q.** And the Residual Activity (%) [6]?
**A.** Its Residual Activity (%) is 18.4%.

**Q.** What about the Residual Activity (%) [7] of the same substance?
**A.** Its Residual Activity (%) is 27.3%.

**Q.** What about the Residual Activity (%) [8] of the same substance?
**A.** The Residual Activity (%) was 39%.

**Q.** What about the Residual Activity (%) [9] of the same substance?
**A.** The Residual Activity (%) was 12%.

**Q.** And the Residual Activity (%) [10]?
**A.** Its Residual Activity (%) is 97%.

**Q.** What about the Residual Activity (%) [11] of the same substance?
**A.** The Residual Activity (%) was 69.2%.

**Q.** And the Residual Activity (%) [12]?
**A.** The Residual Activity (%) was 50%.

**Q.** What about the Residual Activity (%) [13] of the same substance?
**A.** The Residual Activity (%) was 21%.

**Q.** What about the Residual Activity (%) [14] of the same substance?
**A.** The Residual Activity (%) was 35.6%.

**Q.** And the Residual Activity (%) [15]?
**A.** Its Residual Activity (%) is 35%.

**Q.** What about the Residual Activity (%) [16] of the same substance?
**A.** The Residual Activity (%) was 29.2%.

**Q.** What about the Residual Activity (%) [17] of the same substance?
**A.** The Residual Activity (%) was 23%.

**Q.** What about the Residual Activity (%) [18] of the same substance?
**A.** The Residual Activity (%) was 27%.

**Q.** And the Residual Activity (%) [19]?
**A.** The Residual Activity (%) was 19%.

**Q.** And the Residual Activity (%) [20]?
**A.** The Residual Activity (%) was 25%.

**Q.** And the Residual Activity (%) [21]?
**A.** Its Residual Activity (%) is 67.7%.
